The results in this text go back to patent US20250186597A1, “TARGETED IMMUNE ACTIVATION WITH IL-18 IMMUNOCYTOKINES” (BRIGHT PEAK THERAPEUTICS AG, priority 2023, published 2025).

As usually defined, the Kd is a measure of binding affinity in units of concentration. By EC50 is commonly meant the concentration at which the effect is half-maximal.

The target in assay [1] is T1, human IL-18 Binding Protein (IL-18BP) (Homo sapiens, UniProt O95998).
T1 sequence (O95998 31-194): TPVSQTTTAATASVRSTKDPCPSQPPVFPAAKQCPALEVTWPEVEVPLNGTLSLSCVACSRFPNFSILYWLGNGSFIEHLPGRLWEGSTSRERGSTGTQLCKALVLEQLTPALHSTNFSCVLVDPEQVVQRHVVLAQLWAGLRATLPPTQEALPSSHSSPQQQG
The experiment in a line: IL-18 Binding Protein alphaLISA assay (Example 12). Conditions: human IL-18BP. How it is done: Wild type or modified IL-18 polypeptides samples were diluted at 5.6 μM in a solution of 1× alphaLISA Immunoassay Buffer provided in the alphaLISA IFNγ Detection kit and were diluted applying 3-fold serial dilutions down to […] in 384 deep well plates. A solution of 10 ng/ml of human IL-18BP-His was prepared with 1×alphaLISA Immunoassay Buffer. IL-18/IL-18BP complex formation was performed incubating 30 μl of IL-18BP solution to IL-18 sample titrations for 1 h at 20° C. IL-18BP standard was prediluted from stock solution supplied in alphaLISA IFNγ Detection kit at 100 ng/ml with 1×alphaLISA Buffer and titration prepared from applying 2-fold serial dilutions. The following solutions were prepared: a 50 μg/ml solution of anti-IL-18BP alphaLISA Acceptor beads, a 5 nM solution of biotinylated anti-IL18BP antibody and a 80 μg/ml light-protected solution of Streptavidin Donor beads in 1×alphaLISA Immunoassay Buffer. […]
5 μl of Biotinylated anti-IL-18BP antibody were added, followed by a short centrifugation step at 150 g, and incubated for 60 minutes at 20° C. under shaking at 750 rpm. […] AlphaLisa signal was then measured on an Enspire plate reader (Perkin Elmer) using 680 and 615 nm as excitation and emission wavelengths respectively. […]
In general terms: In Alpha technology, singlet oxygen from a donor bead excites a nearby acceptor bead.

Assay [2] concerns parental PD-1 negative KG-1 cells. The experiment in a line: IFN gamma secretion assay in parental PD-1 negative KG-1 cells (Example 11). As to conditions: IFNγ secretion. Format: cell-based, human. The method, then: The KG-1 cell line was used to generate a PD-1 expressing cell line and furthermore, to measure IFNγ release upon incubation with IL-18 variants and corresponding IL-18 immunocytokines.
IFNγ release was assessed in PD-1 positive (transduced) KG-1 cells, as well as in the parental PD-1 negative cells. 0.5×10^5 cells were seeded into a 96-well U-bottom plate in culture media (RPMI, 10% FBS, 1% L-Glutamine) and stimulated with IL-18 variants/ICs for 20-24 h. The test items were diluted to 100 nM in culture medium, followed by 7 10-fold serial dilutions. The lowest concentration assessed was […]. After incubation, IFNγ release was measured using the LEGENDplex custom human mix and match KIT (Biolegend LEGENDplex™ Human IFN-γ Capture Bead B5, 13X #740942, LEGENDplex™ HU Essential Immune Response Panel Detection Abs, #740931, LEGENDplex™ Buffer Set A #740368). To this end, cell culture supernatant was collected and diluted 1:1 with Assay Buffer. Fluorescence measurements were done with a Quanteon Flow Cytometer from Acea Biosciences. For analysis, MFI values (median fluorescence intensity) were exported and plotted against concentrations used. The EC50 values (half maximal effective concentration) were calculated based on a variable slope and four parameter analysis using GraphPad PRISM software version 9.

B1: SEQ ID NO: 30: IL-18 polypeptide: E6K, V11I, C38A, K53A, T63A, C76A, C127A (protein)
chain: YFGKLKSKLSIIRNLNDQVLFIDQGNRPLFEDMTDSDARDNAPRTIFIISMYADSQPRGMAVAISVKCEKISTLSAENKIISFKEMNPPDNIKDTKSDIIFFQRSVPGHDNKMQFESSSYEGYFLAAEKERDLFKLILKKEDELGDRSIMFTVQNED
Turning to B1, the Kd in assay [1] was found to be 24.6 nM. For the same molecule, the EC50 in assay [2] is 0.012 nM.
